Data set [1] can be described thus: surface PD-L1 flow cytometry, MCF7. The following applies: glycan lost; control: WT PD-L1, MCF7.
Data set [2] can be described thus: surface PD-L1 flow cytometry, MDA-MB231. Conditions: glycan lost; control: WT PD-L1, MDA-MB231. (In general: In flow cytometry, cells or beads pass a laser one at a time.)
A short description of data set [3]: EV-bound PD-L1 ELISA after ultracentrifugation. Conditions: glycan lost; control: WT PD-L1. In general terms: In an ELISA, binding on a coated surface is turned into a signal by an enzyme label.
A short description of data set [4]: IcAR-PD-1 mIL-2 with ICBs, A375 and A549 cells. Conditions: glycan lost; control: WT PD-L1.
Data set [5] is described as follows: PD-L1 ELISA of cell lysates, MDA-MB231 and MCF7. The following applies: glycan lost; control: WT PD-L1.
Data set [6] is described as follows: soluble PD-L1 ELISA of supernatants, MDA-MB231 and MCF7. The following applies: glycan lost; control: WT PD-L1.
The nature of data set [7]: total-cellular/membrane PD-L1 ratio, flow cytometry, fixed MCF7. The following applies: glycan lost; control: WT PD-L1, MCF7.
Data set [8] in a line: total-cellular/membrane PD-L1 ratio, flow cytometry, fixed MDA-MB231. Conditions: glycan lost; control: WT PD-L1, MDA-MB231.
Data set [9] addresses PD-1 on IcAR-PD-1 cells (Immune Checkpoint Artificial Reporter overexpressing PD-1) (human) (UniProt Q15116).
For data set [10] the target is unchanged. This is another data set of the same source.
Data set [11] has as its target PD-1 on primary human CD8+ T cells (human (endogenous in primary T cells of donors)) (UniProt Q15116).
For data set [12] the target is unchanged. The source holds these as a separate data set.
In data set [13] the target is PD-1 on IcAR-PD-1 cells (Immune Checkpoint Artificial Reporter overexpressing PD-1) (human) (UniProt Q15116). The source holds these as a separate data set.
The target is the same in data set [14]. The source holds these as a separate data set.
The target is the same in data set [15]. The source holds these as a separate data set.

Turning to PD-L1: N35A, the “expression_or_secretion, fold_change” value in data set [1] and in data set [2] was “no change” each time. Besides, the expression_or_secretion entry was “increases” in [3]; “no change” in [5]; “increases, decreased by approximately 35% in MDA-MB231 PD-L1N35A cells and about 45% in MCF7 PD-L1N35A cells” in data set [6]. For the same substance, the “other: antibody blockade of PD-L1/PD-1 interaction” value in data set [4] was “decreases”. Besides, in [7], the localisation_or_trafficking result is reported as “no change”. The “localisation_or_trafficking, fold_change” value in [8] is recorded as “no change, a slight increase in total-cellular PD-L1 levels was observed in PD-L1N35A mutant MDA-MB231 cells”.
As to PD-L1: N192A, the “expression_or_secretion, fold_change” value in [1] and in [2] was “no change” each time.
In the case of “PD-L1 N35A glycosylation mutant (from UniProt Q9NZQ7 19-290) (ligand)”, the percent blocking of the mIL-2 signal of IcAR-PD-1 cells by the anti-PD-1 antibody Nivolumab (1.5-40 µg/mL), MCF7 cells in data set [9] was above 50%. In data set [10], this substance had a percent blocking of the mIL-2 signal of IcAR-PD-1 cells by Cemiplimab (anti-PD-1, 10 µg/mL), fixed MCF7 cells of 53%; a percent blocking of the mIL-2 signal of IcAR-PD-1 cells by Cemiplimab (anti-PD-1, 10 µg/mL), fixed MDA-MB231 cells of 19.6%; a percent blocking of the mIL-2 signal of IcAR-PD-1 cells by Nivolumab (anti-PD-1, 10 µg/mL), fixed MCF7 cells of 98.6%; a percent blocking of the mIL-2 signal of IcAR-PD-1 cells by Nivolumab (anti-PD-1, 10 µg/mL), fixed MDA-MB231 cells of 83.2%. In [10], the percent blocking of the mIL-2 signal of IcAR-PD-1 cells by Pembrolizumab (anti-PD-1, 10 µg/mL), fixed MCF7 cells came to 100% and the percent blocking of the mIL-2 signal of IcAR-PD-1 cells by Pembrolizumab (anti-PD-1, 10 µg/mL), fixed MDA-MB231 cells was 91.6%. In data set [11], this substance registered a percent of CD107a+ cells among CD8+ PD-1+ TCM cells (degranulation) after 4 h co-culture of anti-hCD3-activated PBMCs with MCF7 cells of 3.1% and a percent of CD107a+ cells among CD8+ PD-1+ TCM cells (degranulation) after 4 h co-culture of anti-hCD3-activated PBMCs with MDA-MB231 cells of 3.7%. In data set [12], this substance displayed a percent lysis of MCF7 target cells by PBMCs (killing assay) of 3.8% and a percent lysis of MDA-MB231 target cells by PBMCs (killing assay) of 12.2%.
Take PD-L1: N219A: the “expression_or_secretion, fold_change” value in data set [1] and in data set [2] was “no change” throughout.
Take PD-L1: N200A: the “expression_or_secretion, fold_change” value in data set [1] and in data set [2] was “no change” each time.
“PD-L1 Nx4 mutant (all four N-glycosylation sites replaced by alanine) (from UniProt Q9NZQ7 19-290) (ligand)” gave a percent blocking of the mIL-2 signal of IcAR-PD-1 cells by anti-PD-1 antibodies Pembrolizumab, Nivolumab, Cemiplimab, all concentrations, MDA-MB231 and MCF7 cells in [13] of 100%. For the same substance, in [14], the mIL-2 response of IcAR-PD-1 cells incubated 24 h with formalin-fixed MCF7 cells, no antibody; fold reduction against PD-L1WT (fold reduction) came out at 22 and the mIL-2 response of IcAR-PD-1 cells incubated 24 h with formalin-fixed MDA-MB231 cells, no antibody; fold reduction against PD-L1WT (fold reduction) was determined as 10. In [11], this substance showed a percent of CD107a+ cells among CD8+ PD-1+ TCM cells (degranulation) after 4 h co-culture of anti-hCD3-activated PBMCs with MCF7 cells of 6.1% and a percent of CD107a+ cells among CD8+ PD-1+ TCM cells (degranulation) after 4 h co-culture of anti-hCD3-activated PBMCs with MDA-MB231 cells of 10.3%. In data set [12], the percent lysis of MCF7 target cells by PBMCs (killing assay) worked out at 7% and the percent lysis of MDA-MB231 target cells by PBMCs (killing assay) worked out at 39.1%.
Turning to “WT PD-L1 (programmed death-ligand 1) (from UniProt Q9NZQ7 19-290)”, the concentration of the anti-PD-1 antibody Pembrolizumab that completely blocked the mIL-2 signal of IcAR-PD-1 cells, MDA-MB231 and MCF7 cells in data set [15] stood at 20 µg/mL.

Source of the values: publication PMC12065222.
